Substrate in the series “purified protein”: C[N+](C)(C)CC=O
Briefly: purified protein. To be noted: 50 mM HEPES-KOH pH 8.0, 500 μM NAD+.

Substrate in series [1]: C[N+](C)(C)CCC=O
Kind of series: spectrophotometric aldehyde dehydrogenase assay (NADH formation). The format is biochemical, Leymus chinensis. To be noted: 50 mM HEPES-KOH pH 8.0, 500 μM NAD+. The source says: (§1) spectrophotometric aldehyde dehydrogenase assay (NADH formation) on LcBADH2

Substrate in series [2]: C[N+](C)(C)CCCC=O
Described as above. It is filed as biochemical, Leymus chinensis. To be noted: 50 mM HEPES-KOH pH 8.0, 500 μM NAD+.
Source text: as §1

Substrate in series [3]: NC(=O)c1ccc[n+]([C@@H]2O[C@H](COP(=O)(O)OP(=O)(O)OC[C@H]3O[C@@H](n4cnc5c(N)ncnc54)[C@H](O)[C@@H]3O)[C@@H](O)[C@H]2O)c1
The description is as above. It is filed as biochemical, Leymus chinensis. The following applies: 50 mM HEPES-KOH pH 8.0, 200 μM betaine aldehyde.
Source text: as §1

Substrate in series [4]: NCCC=O
The description is as above. To be noted: 50 mM HEPES-KOH pH 8.0, 500 μM NAD+. It is filed as biochemical, Leymus chinensis.
Source text: as §1

Substrate in series [5]: NCCCC=O
The series is described as above. It is filed as biochemical, Leymus chinensis. The following applies: 50 mM HEPES-KOH pH 8.0, 500 μM NAD+.
Source text: as §1

Substrate in series [6]: NC(=O)c1ccc[n+]([C@@H]2O[C@H](COP(=O)(O)OP(=O)(O)OC[C@H]3O[C@@H](n4cnc5c(N)ncnc54)[C@H](OP(=O)(O)O)[C@@H]3O)[C@@H](O)[C@H]2O)c1
The description is as above. The format is biochemical, Leymus chinensis. The following applies: 50 mM HEPES-KOH pH 8.0, 200 μM betaine aldehyde.

Substrate in series [7]: C[N+](C)(C)CCC=O
Described as above. It is filed as biochemical, Leymus chinensis. To be noted: 50 mM HEPES-KOH pH 8.0, 500 μM NAD+. The source says: (§2) spectrophotometric aldehyde dehydrogenase assay (NADH formation) on LcBADH1
This is another data set of the same source.

Substrate in series [8]: C[N+](C)(C)CCCC=O
The description is as above. The format is biochemical, Leymus chinensis. The following applies: 50 mM HEPES-KOH pH 8.0, 500 μM NAD+.
Source text: as §2
This is another data set of the same source.

Substrate in series [9]: NC(=O)c1ccc[n+]([C@@H]2O[C@H](COP(=O)(O)OP(=O)(O)OC[C@H]3O[C@@H](n4cnc5c(N)ncnc54)[C@H](O)[C@@H]3O)[C@@H](O)[C@H]2O)c1
The description is as above. It is filed as biochemical, Leymus chinensis. To be noted: 50 mM HEPES-KOH pH 8.0, 5 mM betaine aldehyde.
Source text: as §2

Substrate in series [10]: NCCC=O
The series is described as above. The format is biochemical, Leymus chinensis. To be noted: 50 mM HEPES-KOH pH 8.0, 500 μM NAD+.
Source text: as §2
The source holds these as a separate data set.

Substrate in series [11]: NCCCC=O
Described as above. It is filed as biochemical, Leymus chinensis. To be noted: 50 mM HEPES-KOH pH 8.0, 500 μM NAD+.
Source text: as §2
The source holds these as a separate data set.

B1: LcBADH2 (Leymus chinensis) (protein)
chain: MASPAIPQRQLFIDGEWRAPALGRRLPVINPTTEASIGEIPSGTSEDVDAAVAAARAALKRNRGRDWSRAPGAVRAKYLRAIAAKMIERKADLARLEALDCGKPLDEAAWDMDDVAGCFEFFAGHAEALDKRQNAAVSLPENFKCHLKKEPIGVVSLITPWNYPLLMATWKVAPALAAGCTAVLKPSELASVTCLELADVCKEVGLPPGVLNVVTGLGPEAGAPLSSHPDVDKVAFTGSYATGQKIMVAAAPTVKAVTLELGGKSPIVVFDDVDIDKAVEWTLFGCFWTNGQICSATSRLLIHKNIAKEFVDRMVAWSKNIKVSDPLEEGCRLGPVVSEGQYEKIKKFISNAKSEGATILTGGVRPKHMEKGFFIEPTIITDINTSMEIWREEVFGPVLCVKEFSTEEEAIELANDTHYGLAGAVISGDRERCQRLAEEIDAGCIWVNCSQPCFCQAPWGGNKRSGFGRELGEGGIDNYLSIKQVTEYTSDAPWGWYKAPAN
notes: approx 54 kDa
For orientation: Km means the concentration of substrate that gives half-maximal velocity. Broadly, the Vmax is the top rate of the reaction or transport when substrate is in excess. On to B1, for which the Km in the series “purified protein” stood at 109 ± 10.0 µM; in series [1], 91.4 ± 9.60 µM; in [2], 22.1 ± 1.50 µM; in series [3] it was 7.66 ± 0.60 µM; in [4] it was 4.53 ± 0.81 µM; in series [5], 1.96 ± 0.30 µM. The Km in series [6] came out at 3680 ± 725 µM. In addition, the maximal velocity (Vmax) in “purified protein” is 1.59 µmol/min/mg; in series [1], 1.01 µmol/min/mg; in series [2], 1.33 µmol/min/mg; in [3], 1.36 µmol/min/mg; in [4], 2.16 µmol/min/mg; in series [5], 1.29 µmol/min/mg.

B2: LcBADH1 (Leymus chinensis) (protein)
chain: MAAPPAIPRRGLFIGGGWREPTLGRRIPVINPATEDTIGDIPAATVEDVELAVAAARSAFLLDGGSRWSRASGATRAKYLNAIAAKIKEKISYLALLETVDSGKPKDEAVADMDDVAACFEYYAGLAEALDGKQHAPISLPMEEFKTYVLKEPIGVVGLITPWNYPLLMATWKVAPALAAGCTAVLKPSELASLTCLELGAICEEIGLPSGVLNIITGLGADAGAPIASHPHVDKIAFTGSTATSKTIMTAAAQMVKPVSLELGGKSPLVIFDDVADIDKAVEWAMFGCFFNGGQVCSATSRLLLREKIAERFLDRLVEWAKNIKISDPLEEGCRLGSVVSKGQYEKIKKFISTARSEGATILHGGDRPKHLGKGFFIEPTIITDVSTSMQIWREEVFGPVICVKVFKTESEAIELANDTHYGLAGGVISDDLERCERIAKVIHSGIVWINCSQPTLVQAPWGGNKQSGFGRELGEWGLENYLSVKQVTRYCKDELYGWYQRPSKL
notes: approx 54 kDa
For the protein B2, the Km was found to be 27300 ± 7000 µM in the series “purified protein”; 762 ± 175 µM in series [7]; 56.5 ± 17.0 µM in series [8]; 15.6 ± 5.70 µM in series [9]; 27.4 ± 6.30 µM in series [10]; 48.1 ± 12.6 µM in series [11].

The values above are taken from publication PMC4431990, “Functional and expression analyses of two kinds of betaine aldehyde dehydrogenases in a glycinebetaine-hyperaccumulating graminaceous halophyte, Leymus chinensis” (SpringerPlus, 2015).
